Experiments:
Assay in all cases: cell-based or functional assay
[1] = target: Human VEGF (dendritic cell assay) (human) (UniProt P15692)
[2] = target: VEGF (soluble stimulus added to cell cultures)
[3] = target: bFGF (soluble stimulus added to cell cultures)

Human VEGF (dendritic cell assay) (human), sequence (P15692 other isoform, or with tags, fused parts or gaps limits assumed): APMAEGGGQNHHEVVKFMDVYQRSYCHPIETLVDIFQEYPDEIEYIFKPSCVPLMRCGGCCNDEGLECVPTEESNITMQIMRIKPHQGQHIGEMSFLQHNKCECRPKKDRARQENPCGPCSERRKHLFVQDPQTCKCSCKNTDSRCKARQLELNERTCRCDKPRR

CD86 (MFI) on dendritic cells +VEGF +LPS, VHH 1 µg/mL [1]: 1980 MFI | CD86 (MFI) on dendritic cells +VEGF +LPS, VHH 5 µg/mL [1]: 2050 MFI | CD86 (MFI) on dendritic cells +VEGF +LPS, VHH 10 µg/mL [1]: 2000 MFI | MHCII (MFI) on dendritic cells +VEGF +LPS, VHH 1 µg/mL [1]: 5210 MFI | MHCII (MFI) on dendritic cells +VEGF +LPS, VHH 5 µg/mL [1]: 5140 MFI | MHCII (MFI) on dendritic cells +VEGF +LPS, VHH 10 µg/mL [1]: 4910 MFI | IC50, proliferation of HDMEC cells +VEGF (5 ng/ml) [2]: > 6 µM | PD1 expression (%) in CD8+ cells treated with VEGF, VHH 1 µg/mL [2]: 68% | PD1 expression (%) in CD8+ cells treated with VEGF, VHH 5 µg/mL [2]: 67% | PD1 expression (%) in CD8+ cells treated with VEGF, VHH 10 µg/mL [2]: 65% | average of nodes of the HDMEC network on Matrigel, VEGF 100 ng/mL, VHH 150 nM (nodes per field) [2]: 41 | IC50, bFGF-induced proliferation of 3T3A31 cells [3]: > 250 | IC50, bFGF-induced proliferation of A549 cells [3]: > 250 | IC50, bFGF-induced proliferation of B16F10 cells [3]: > 250 | IC50, bFGF-induced proliferation of NIH3T3 cells [3]: > 250 | IC50, proliferation of HDMEC cells +bFGF (10 ng/ml) [3]: > 6 µM | average of nodes of the HDMEC network on Matrigel, bFGF 10 ng/mL, VHH 150 nM (nodes per field) [3]: 40
Substance: Nb-Neg (VHH)

Reference: patent US20250326826A1
